Residue numbers refer to the chain shown, from its start. In names and notes the source's numbering stands.
B1: PKD2 WT channel (hPKD2: 52-793) (domain or fragment, human, UniProt Q13563 52-793, looked up)
chain: LEIEMQRIRQAAARDPPAGAAASPSPPLSSCSRQAWSRDNPGFEAEEEEEEVEGEEGGMVVEMDVEWRPGSRRSAASSAVSSVGARSRGLGGYHGAGHPSGRRRRREDQGPPCPSPVGGGDPLHRHLPLEGQPPRVAWAERLVRGLRGLWGTRLMEESSTNREKYLKSVLRELVTYLLFLIVLCILTYGMMSSNVYYYTRMMSQLFLDTPVSKTEKTNFKTLSSMEDFWKFTEGSLLDGLYWKMQPSNQTEADNRSFIFYENLLLGVPRIRQLRVRNGSCSIPQDLRDEIKECYDVYSVSSEDRAPFGPRNGTAWIYTSEKDLNGSSHWGIIATYSGAGYYLDLSRTREETAAQVASLKKNVWLDRGTRATFIDFSVYNANINLFCVVRLLVEFPATGGVIPSWQFQPLKLIRYVTTFDFFLAACEIIFCFFIFYYVVEEILEIRIHKLHYFRSFWNCLDVVIVVLSVVAIGINIYRTSNVEVLLQFLEDQNTFPNFEHLAYWQIQFNNIAAVTVFFVWIKLFKFINFNRTMSQLSTTMSRCAKDLFGFAIMFFIIFLAYAQLAYLVFGTQVDDFSTFQECIFTQFRIILGDINFAEIEEANRVLGPIYFTTFVFFMFFILLNMFLAIINDTYSEVKSDLAQQKAEMELSDLIRKGYHKALVKLKLKKNTVDDISESLRQGGGKLNFDELRQDLKGKGHTDAEIEAIFTKYDQDGDQELTEHEHQQMRDDLEKEREDLDLDH
B2: PKD2 F629S variant channel (hPKD2: 52-793) (domain or fragment, human, UniProt Q13563 52-793, looked up)
chain: B1 chain with F578S
B3: PKD2 R638C variant channel (hPKD2: 52-793) (domain or fragment, human, UniProt Q13563 52-793, looked up)
chain: B1 chain with R587C

Columns and labels:
SEC = biological target: the molecule itself; experiment: SEC
cryo-EM structure = biological target: the molecule itself; experiment: cryo-EM structure

Protein | binding result (SEC) | stoichiometry N (cryo-EM structure)
B1 | binds | –
B2 | – | 4
B3 | – | 4
